Laboratory results from patent US20200102349A1 (REGENTS OF THE UNIVERSITY OF MICHIGAN, published 2020).
Where no end group is shown, it is not given here. Cy5.5 = Cy5.5 fluorophore

Legend:
[1] = target: T1, Epidermal growth factor receptor (EGFR), human, on cells (human, UniProt P00533 25-1210); experiment: apparent dissociation constant, flow cytometry on HT29 cells, 0-200 nM peptide, 4° C., R^2=0.95
T1 construct: whole, on cells; The expression level differs between cell lines (HT29 > SW480 > SW620); It is reduced in HT29 cells transfected with siEGFR
Experimental: We measured the apparent dissociation constant of the peptide to HT29 cells as an assessment of binding affinity. QRH*-Cy5.5 was serially diluted in PBS at concentrations of 0, 10, 25, 50, 75, 100, 125, 150 and 200 nM. HT29 cells (˜10⁵) were incubated with QRH*-Cy5.5 at 4° C. for 1 hour, washed with cold PBS, and the mean fluorescence intensities were measured on flow cytometry. The equilibrium dissociation constant kd=1/kₐ was calculated by performing a least squares fit of the data to the non-linear equation I=(I₀+Iₘₐₓkₐ[X])/([…]). I₀ and Iₘₐₓ are the initial and maximum fluorescence intensities, corresponding to no peptide and at saturation, respectively, and [X] represents the concentration of the bound peptide [Thomas et al., Clin Exp Metastasis, 26:105-119 (2009)]. Origin 6.1 data analysis software (OriginLab Corp) was used to calculate kd.

[2] = target: T1, Epidermal growth factor receptor …; experiment: confocal fluorescence microscopy, FITC channel, OE21 cells

B1: QRH*-Cy5.5 (QRHKPRE peptide with GGGSK linker and Cy5.5 fluorophore) (peptide)
peptide: QRHKPREGGGSK(Cy5.5)-NH2
notes: also called EGFR peptide
In the case of B1, the Kd [1] is reported as 50 nM.

B2: FITC labeled SHRNRPRNTQPS (SHR*) peptide (peptide)
peptide: SHRNRPRNTQPS
modifications: also: FITC label, site not given here
notes: also called SHR*-FITC; FITC-labeled peptide
B2 was tested, and the “fold fluorescence intensity against the GGG* control peptide” value [2] was greater than 5 fold.
